According to patent US20250277199, “NOVEL CRISPR-CAS NUCLEASES FROM METAGENOMES” (Brain Biotech AG, published 2025):

Target: T1, BMC01 (uncultured bacterium (metagenome))
T1 chain: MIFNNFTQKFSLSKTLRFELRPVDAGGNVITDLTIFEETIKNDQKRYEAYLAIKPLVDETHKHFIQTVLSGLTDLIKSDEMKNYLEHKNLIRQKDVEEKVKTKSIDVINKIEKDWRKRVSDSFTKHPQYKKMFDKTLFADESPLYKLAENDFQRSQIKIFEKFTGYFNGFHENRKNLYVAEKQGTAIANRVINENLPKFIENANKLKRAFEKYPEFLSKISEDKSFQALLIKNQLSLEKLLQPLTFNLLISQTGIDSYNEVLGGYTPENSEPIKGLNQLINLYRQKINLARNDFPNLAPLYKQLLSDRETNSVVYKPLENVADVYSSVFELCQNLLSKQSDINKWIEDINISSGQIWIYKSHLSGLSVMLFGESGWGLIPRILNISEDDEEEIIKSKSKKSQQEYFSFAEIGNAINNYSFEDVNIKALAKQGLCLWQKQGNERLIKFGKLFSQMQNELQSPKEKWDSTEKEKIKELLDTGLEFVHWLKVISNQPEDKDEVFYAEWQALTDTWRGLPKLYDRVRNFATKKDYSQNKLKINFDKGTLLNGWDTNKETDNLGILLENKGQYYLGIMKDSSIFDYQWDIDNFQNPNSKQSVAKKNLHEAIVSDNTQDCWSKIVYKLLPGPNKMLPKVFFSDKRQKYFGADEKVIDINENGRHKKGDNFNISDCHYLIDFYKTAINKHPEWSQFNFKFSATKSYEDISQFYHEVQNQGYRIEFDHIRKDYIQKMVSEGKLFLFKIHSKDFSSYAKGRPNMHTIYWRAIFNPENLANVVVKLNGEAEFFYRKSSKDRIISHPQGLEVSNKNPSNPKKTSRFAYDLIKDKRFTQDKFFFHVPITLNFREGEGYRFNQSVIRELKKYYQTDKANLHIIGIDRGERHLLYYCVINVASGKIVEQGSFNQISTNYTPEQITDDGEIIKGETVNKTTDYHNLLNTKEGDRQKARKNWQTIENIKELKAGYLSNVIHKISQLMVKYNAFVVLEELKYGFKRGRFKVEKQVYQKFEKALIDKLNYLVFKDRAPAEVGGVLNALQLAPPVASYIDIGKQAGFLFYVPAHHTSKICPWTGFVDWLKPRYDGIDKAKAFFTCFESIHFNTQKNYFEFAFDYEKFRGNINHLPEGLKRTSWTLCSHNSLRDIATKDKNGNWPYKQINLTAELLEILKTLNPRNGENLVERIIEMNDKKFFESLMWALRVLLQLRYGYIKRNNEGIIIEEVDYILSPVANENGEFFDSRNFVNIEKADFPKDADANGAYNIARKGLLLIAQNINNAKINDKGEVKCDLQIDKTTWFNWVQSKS
Experiment: cell_activity; PAM not stated; E. coli depletion, 30 C
Description: Overnight grown pre-cultures were diluted into fresh 60 ml LB-Kanamycin (25 μg/ml) (Example 4) or LB-Kanamycin (25μg/ml)/Nourseothricin (50 μg/ml) medium (Example 5) to obtain an optical density at 600 nm (OD600) of 0.06. The inoculated medium was incubated at 30° C. on a horizontal shaker at 250 rpm until the culture reached an optical density at OD600 of 0.2. For induced BMC (NN) nuclease expression, 600 μl 20% L-(+)-arabinose (w/v) was added to the culture at a final concentration of 0.2% (v/v). The cultivation was continued until the culture reached an optical density at OD600 of 0.5. Subsequently 50 ml culture was transferred into one 50 ml conical tube and harvested by centrifugation at 4° C. for 5 min and 4000×g. Pelleted cells were resuspended in 50 ml ultrapure water (ice-cold) and centrifuged at 4° C. for 5 min and 4000×g.
This washing procedure was repeated twice. Washed cells were resuspended in 25 ml 10% (w/w) glycerin and re-centrifuged at 4° C. for 5 min and 4000×g. The pelleted cells were resuspended in 5 ml 10% (w/w) glycerin. After the final centrifugation step at 4° C. for 5 min and 4000×g, the cells were resuspended in 125 μl 10% (w/w) glycerin. Aliquots of 25 μl competent cells were stored at −80° C. until use. For the transformation procedure, aliquots of competent cells were thawed on ice and 50-100 ng plasmid DNA (CRISPR/gRNA-Ec) was added. Prepared cells were electroporated at 1800 V, 25 μF and 200 Ω in 1 mm gap size electroporation cuvettes, using the Bio-Rad Gene Pulser Xcell Electroporation System. Subsequently, 975 μL of NEB® 10-beta/Stable Outgrowth Medium was added immediately after the pulse to the transformed cells. Regeneration was done at 30° C. on a horizontal shaker at 250 rpm. Finally, 25-100 μl of the cell suspension was plated onto selective M9-Glucose agar plates supplemented with Kanamycin (25 μg/ml)/Ampicillin (100 μg/ml) (Example 4) or Kanamycin (25 μg/ml)/Ampicillin (100 μg/ml)/Nourseothrin (50 μg/ml) (Example 5). Growth of transformed E. coli cells on selective agar plates was screened for 48 h at 30° C.
As described above, each of the BMC01, BMC02, BMC03, BMC04, BMC05, BMC07, BMC08, BMC09, BMC10, BMC11, BMC12, BMC13, BMC14, or BMC15 nucleases was co-transformed into E. coli with a gRNA targeting the E. coli malQ gene to visualize a) the activity and b) the DNA targeting efficiency of the BMC nucleases.

B1: malQ gRNA (BMC stem-loop + 24 nt spacer) ; malQ protospacer (ssRNA ; dsDNA)
RNA: GAUUUCUACUAUUGUAGAUGUGGCGGUACGUUGAUGCAUCGCG
DNA 1: GTGGCGGTACGTTGATGCATCGCG
DNA 2: CGCGATGCATCAACGTACCGCCAC
activity: > 99.9 % colony reduction
